Where a chain is given by its changes, count along the chain named.
B1: MB9 (designed binder)
chain: MSIQQIQKEITNIQEVIAAIQKWIYTMTGGSGGSGGMSIEEIQKQIAAIQCQIAAIQKQIYAMTGSGGGGSGGSGGGGSGMSIEEIQKQIAAIQNQILAIYKQIMAMGS
B2: MB67 (designed binder)
chain: B1 chain with Q5K, W23Y, N95R, G108S, S109T
B3: MA5 (designed binder)
chain: B1 chain with Q4K, T11A, N12Q, T26R, N95D, L98V, G108S
B4: MB43 (designed binder)
chain: B1 chain with Q4E, Q5E, T11K, W23Y, Q87P, N95D, L98I, G108T, S109R
B5: MB64 (designed binder)
chain: MSIQQIQKEITQIQAVIAGIQKYIYRMTGGSGGSGGGGSGGSGGMSIEEIQKQIAAIQCQIAAIQKQIYAMTGSGGGGSGMSIEEIQKQIAAIQGQIVAIYKQIMAMAT
B6: MA9 (designed binder)
chain: B5 chain with Q12T, G19A, Y23W, R26T, V98I, A108K, T109D
B7: MAcons (designed binder)
single chain Alphabody: B5 chain with T11A, A15E, G19A, Y23W, R26S, G95D, A108S, T109G
notes: also called polypeptide 15
B8: MA15 (designed binder)
chain: B5 chain with Q5E, T11A, Q12N, R26T, A91T, G95A, V98I, A108P, T109R
B9: MB74 (designed binder)
chain: B5 chain with T11A, Q12T, A15E, V98L, T109I
B10: MB23 (designed binder)
chain: MSIEQIQKEITTIQEVIAAIQKYIYTMTGGSGGSGGMSIEEIQKQIAAIQCQIAAIQKQIYAMTGSGGGGSGMSIEEIQKQIAAIQEQIVAIYKQIMAMAS
notes: 3 for clone 59 (conflict); also called non-PEGylated MB23 Alphabody
B11: MB76 (designed binder)
chain: B10 chain with E4Q, T12Q, T26R, G35D, E87G, V90L, A100S, S101L
B12: MA14 (designed binder)
chain: B10 chain with K8T, T11A, T12S, A19G, T26S, E87N, A100G, S101G
B13: MA23 (designed binder)
chain: B10 chain with E4Q, T11A, T12N, Y23W, T26L, A100P
B14: MB38 (designed binder)
chain: B10 chain with E4Q, Q5E, T11K, T12Q, A19G, T26G, E87N, V90L, A100P, S101Q
B15: Cl59 (designed binder)
chain: MSIEEIQKQIASIQEVIAGIQKWIYMMTGGSGGSGGMSIEEIQKQIAAIQKQIAAIQKQIYAMTGGSGGGGSGMSIEEIQKQITAIKEQIIAIYKQIMAMTP
notes: Non-matured Alphabody from the AC11 library, tested as soluble recombinant protein; also called Clone 59; C159
B16: 59m_C2eQ (designed binder)
single chain Alphabody: MSIQQIQKEIAQIQEVIAGIQKWIYMMTGGSGGSGGGGSGGSGGMSIEEIQKQIAAIQCQIAAIQKQIYAMTGSGGGGSGGSGGGGSGMSIEEIQKQITAIQEQIIAIYKQIMAMTP
notes: also called design variant; polypeptide 19
B17: MA12 (designed binder)
chain: B16 single chain Alphabody with Q5E, E15A, W23Y, M26T, T99A, I106L, T116V, P117T
notes: also called MAl2
B18: 59m_A3cA_A4cS_C2eQ (designed binder)
single chain Alphabody: B16 single chain Alphabody with G19A, M26S
notes: also called design variant; polypeptide 20
B19: Cl59m (designed binder)
chain: B16 single chain Alphabody with S34G, G35S, S42G, G43S, C59K, S74G, G75S, S82G, G83S, Q102K
notes: Rationally designed (in silico matured) variant of Cl59; also called C159m
B20: MB23-PEG (designed binder)
chain: B10 chain
modifications: 40 kDa activated maleimide PEG conjugated to the single free thiol group (Cys) of MB23

Target: T1, human IL-23 (human, UniProt Q9NPF7 20-189; P29460 23-328)
T1 construct: Bought recombinant heterodimeric cytokine (eBioscience 34-8239-85 for panning; R&D Systems for the splenocyte assay); also called hIL-23; hIL23
T1 sequence (looked up) 1: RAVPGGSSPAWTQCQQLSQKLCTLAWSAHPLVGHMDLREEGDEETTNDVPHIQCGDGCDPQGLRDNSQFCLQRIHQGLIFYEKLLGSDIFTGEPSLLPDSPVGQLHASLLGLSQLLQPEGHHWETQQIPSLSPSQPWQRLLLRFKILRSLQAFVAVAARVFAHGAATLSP
T1 sequence (looked up) 2: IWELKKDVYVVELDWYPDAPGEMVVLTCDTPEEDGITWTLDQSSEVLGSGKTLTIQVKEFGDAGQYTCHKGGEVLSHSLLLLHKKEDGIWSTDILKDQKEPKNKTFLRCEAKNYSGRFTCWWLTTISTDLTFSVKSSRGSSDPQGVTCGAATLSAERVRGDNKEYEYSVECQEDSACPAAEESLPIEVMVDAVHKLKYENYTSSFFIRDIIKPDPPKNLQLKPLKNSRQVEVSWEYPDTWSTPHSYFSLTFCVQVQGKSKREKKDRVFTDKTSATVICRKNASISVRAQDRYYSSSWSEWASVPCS
Assay: kinetic ELISA, soluble polypeptide

Binder	Kd [nM]	koff [s⁻¹]	kon [M⁻¹ s⁻¹]
B1	0.13	0.00025	1.9e+06
B2	0.14	0.00022	1.6e+06
B3	0.03	0.00016	4.5e+06
B4	0.11	0.00014	1.3e+06
B5	0.3	0.00033	1.1e+06
B6	0.25	0.00035	1.4e+06
B7	0.13	0.00032	2.5e+06
B8	0.09	7.2e-05	800000
B9	0.25	0.00016	650000
B10	0.15	0.00021	1.5e+06
B11	2.3	0.00056	250000
B12	2.5	0.0005	200000
B13	0.7	0.00032	450000
B14	0.21	0.00022	1e+06
B15		0.0007	100000
B16	3.9	0.00043	110000
B17	0.26	0.00021	810000
B18	0.75	0.00026	350000

Target: T1, human IL-23
Assay: standard equilibrium ELISA, soluble polypeptide; MA12

Binder	Kd [nM]
B17	0.1

Target: T1, human IL-23
Assay: cell-based or functional assay

Binder	functional KD (DB fKD), DB cell assay: Stat3 phosphorylation induced by human IL-23; n data = 2 [nM]	functional KD (Spleno fKD), mouse splenocyte assay: IL-17 production induced by human IL-23; n data = 3 [nM]	functional KD (Spleno fKD), mouse splenocyte assay: IL-17 production induced by human IL-23; n data = 5 [nM]	functional KD (Spleno fKD), mouse splenocyte assay: IL-17 production induced by human IL-23; n data = 1 [nM]
B1	0.7			
B3	0.45	1.15		
B5	0.46		0.18	
B6	0.24	0.46		
B7				4.1
B8	0.29	0.48		
B9				0.9
B10	0.16			
B11				1.7
B12				11
B13				10
B14		1.01		
B15		68.8		
B16				1.9
B17	0.35		0.13	
B19	1.73		21.7	
B18				0.7

Target: T1, human IL-23
Assay: standard equilibrium ELISA

Binder	factor better than the non-matured variant C159 [fold]
B3	38
B17	38

Target: T1, human IL-23
Assay: ELISA

Binder	Kd [nM]
B19	0.3

Target: T1, human IL-23
Assay: phage-coated ELISA, clone displayed on phage

Binder	Kd [nM]
B1	0.2
B2	0.21
B3	0.2
B4	0.18
B5	0.09
B6	0.2
B8	0.12
B9	0.47
B10	0.07
B11	0.16
B12	1.5
B13	0.7
B14	0.18
B15	3
B17	0.08

Target: T1, human IL-23
Assay: cell-based or functional assay
Remark: another data set of the same source

Binder	IC50 (read off the curve), inhibition of Stat3 phosphorylation in DB cells by MB23-PEG pre-incubated with 35 pM hIL23 [nM]
B20	~1

Target: T1, human IL-23
Assay: equilibrium ELISA, soluble polypeptide

Binder	Kd [nM]
B1	0.27
B2	0.25
B3	0.1
B4	0.2
B5	0.21
B6	0.17
B7	0.23
B8	0.31
B9	0.35
B10	0.17
B11	1.83
B12	1.8
B13	0.29
B14	0.2
B16	0.93
B17	0.11
B18	0.39

Target: T1, human IL-23
Assay: kinetic ELISA, soluble polypeptide; kinetic ELISA

Binder	Kd [nM]
B15	7

Target: T1, human IL-23
Assay: equilibrium ELISA, soluble polypeptide; equilibrium ELISA

Binder	Kd [nM]
B15	3.8

Reference: patent publication US20150266925A1 (COMPLIX, published 2015)
